Where a chain is given by its changes, count along the chain named. One block for each binder: values may come before it.
Columns and labels:
[1] = biological target: T1, FcγRIIa R type extracellular domain with C-terminal His tag (human, UniProt P12318 34-217); assay: SPR (Biacore), FcgR as analyte
T1 construct: extracellular domain; also called FcgRIIaR
T1 sequence (looked up): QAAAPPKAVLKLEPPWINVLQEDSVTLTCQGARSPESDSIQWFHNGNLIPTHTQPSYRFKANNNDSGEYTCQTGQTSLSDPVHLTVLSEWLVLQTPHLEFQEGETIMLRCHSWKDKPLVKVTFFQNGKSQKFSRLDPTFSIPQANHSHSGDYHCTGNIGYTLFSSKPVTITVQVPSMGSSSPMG

[2] = biological target: T2, FcγRIIa R type extracellular domain with C-terminal His tag (human, UniProt P12318 34-217); assay: SPR; KD of IL6R-B3/IL6R-L divided by KD of variant
T2 construct: extracellular domain; also called FcgRIIaR; not shown: His tag at the C terminus
T2 sequence (looked up): T1 sequence (looked up)

[3] = biological target: T3, FcγRIIb extracellular domain with C-terminal His tag (human, UniProt P31994 43-217); assay: SPR; KD of IL6R-B3/IL6R-L divided by KD of variant
T3 construct: extracellular domain; also called FcgRIIb; not shown: His tag at the C terminus
T3 sequence (looked up): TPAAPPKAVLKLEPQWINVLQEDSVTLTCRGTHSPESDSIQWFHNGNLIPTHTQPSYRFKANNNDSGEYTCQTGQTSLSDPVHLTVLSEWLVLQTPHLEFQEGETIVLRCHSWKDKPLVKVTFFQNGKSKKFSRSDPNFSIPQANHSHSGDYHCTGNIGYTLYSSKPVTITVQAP

[4] = biological target: T2, FcγRIIa R type extracellular domain …; assay: SPR, antibody captured, FcgR analyte
[5] = biological target: T3, FcγRIIb extracellular domain with …; assay: SPR, antibody captured, FcgR analyte
[6] = biological target: T4, FcγRIIa H type extracellular domain with C-terminal His tag (human, UniProt P12318 34-217); assay: SPR, antibody captured, FcgR analyte
T4 construct: extracellular domain; also called FcgRIIaH; not shown: His tag at the C terminus
T4 sequence (looked up): T1 sequence (looked up) with R134H

[7] = biological target: T5, FcγRIa extracellular domain with C-terminal His tag (human, UniProt P12314 16-292); assay: SPR, antibody captured, FcgR analyte
T5 construct: also called FcgRIa; CD64; not shown: His tag at the C terminus
T5 sequence (P12314 16-292): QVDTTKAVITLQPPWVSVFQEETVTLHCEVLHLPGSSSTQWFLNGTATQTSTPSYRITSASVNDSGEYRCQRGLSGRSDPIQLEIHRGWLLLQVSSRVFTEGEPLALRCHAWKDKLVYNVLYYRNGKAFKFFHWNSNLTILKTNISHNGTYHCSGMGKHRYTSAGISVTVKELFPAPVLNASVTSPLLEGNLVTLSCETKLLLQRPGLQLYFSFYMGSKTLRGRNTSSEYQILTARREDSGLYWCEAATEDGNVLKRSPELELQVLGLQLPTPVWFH

[8] = biological target: T6, FcγRIa extracellular domain with C-terminal His tag (human, UniProt P12314 16-292); assay: SPR (Biacore), FcgR as analyte
T6 construct: also called FcgRIa
T6 sequence (P12314 16-292): as above

B1: IL6R-BP132/IL6R-L (antibody, human IgG1, kappa, name in EU numbering)
heavy: QVQLQESGPGLVKPSETLSLTCAVSGHSISHDHAWSWVRQPPGEGLEWIGFISYSGITNYNPSLQGRVTISRDNSKNTLYLQMNSLRAEDTAVYYCARSLARTTAMDYWGEGTLVTVSSASTKGPSVFPLAPSSKSTSGGTAALGCLVKDYFPEPVTVSWNSGALTSGVHTFPAVLQSSGLYSLSSVVTVPSSSLGTQTYICNVNHKPSNTKVDKKVEPKSCDKTHTCPPCPAPDLLGGDSVFLFPPKPKDTLMISRTPEVTCVVVDVSHEDPEVKFNWYVDGVEVHNAKTKPREEQYNSTYRVVSVLTVLHQDWLNGKEYKCKVSNAALPKPIEKTISKAKGQPREPQVYTLPPSRDELTKNQVSLTCLVKGFYPSDIAVEWESNGQPENNYKTTPPVLDSDGSFFLYSKLTVDKSRWQQGNVFSCSVMHEALHNHYTQESLSLSP
light: not shown
notes: IgG1; alterations on IL6R-B3, EU numbering
Kd [1]: 8000 nM

B3: IL6R-BP497/IL6R-L (antibody, human IgG1, kappa, name in EU numbering)
heavy: B1 heavy with G239D, V266I, S269A, H270E, P273G, A328K, A329G, K332R
light: not shown
notes: human IgG1
Relative FcgRIIaR-binding Activity [2]: 12.6
Relative FcgRIIb-binding Activity [3]: 761
Kd [4]: 85 nM
Kd [5]: 4.1 nM
Kd [6]: 960 nM
Kd [7]: 2.1 nM

B5: IL6R-BP204/IL6R-L (antibody, human IgG1, kappa, name in EU numbering)
heavy: B1 heavy with P273G, K332R
light: not shown
notes: as for B1
Kd [1]: 4500 nM

B8: IL6R-BP499/IL6R-L (antibody, human IgG1, kappa, name in EU numbering)
heavy: B1 heavy with G239D, V266I, S269A, H270E, P273G, Y298D, A328K, K332R, P398L
light: not shown
notes: human IgG1
Relative FcgRIIaR-binding Activity [2]: 21.9
Relative FcgRIIb-binding Activity [3]: 2120
Kd [4]: 49 nM
Kd [5]: 1.5 nM
Kd [6]: 1000 nM
Kd [7]: 1.2 nM

B9: IL6R-BP189/IL6R-L (antibody, human IgG1, kappa, name in EU numbering)
heavy: B1 heavy with D235E, G239D, H270D, P273G
light: not shown
notes: as for B1
Kd [8]: 42 nM

B11: IL6R-BP196/IL6R-L (antibody, human IgG1, kappa, name in EU numbering)
heavy: B1 heavy with D235E, L236Y, H270D, P273G
light: not shown
notes: as for B1
Kd [1]: 3000 nM

B12: IL6R-BP498/IL6R-L (antibody, human IgG1, kappa, name in EU numbering)
heavy: B1 heavy with G239D, V266I, S269A, H270E, P273G, A328K, K332R, P398L
light: not shown
notes: human IgG1
Relative FcgRIIaR-binding Activity [2]: 21.3
Relative FcgRIIb-binding Activity [3]: 1870
Kd [4]: 51 nM
Kd [5]: 1.7 nM
Kd [6]: 930 nM
Kd [7]: 1.3 nM

B13: IL6R-BP180/IL6R-L (antibody, human IgG1, kappa, name in EU numbering)
heavy: B1 heavy with D235E, G239D, P273G, A328K
light: not shown
notes: as for B1
Kd [8]: 98 nM

B14: IL6R-BP182/IL6R-L (antibody, human IgG1, kappa, name in EU numbering)
heavy: B1 heavy with P273G, Y298D, A328K
light: not shown
notes: as for B1
Kd [8]: 10 nM

B16: IL6R-BP183/IL6R-L (antibody, human IgG1, kappa, name in EU numbering)
heavy: B1 heavy with L236Y, P273G
light: not shown
notes: as for B1
Kd [1]: 2600 nM

B17: IL6R-BP197/IL6R-L (antibody, human IgG1, kappa, name in EU numbering)
heavy: B1 heavy with L236Y, G239D, H270D, P273G, Y298D, A328D
light: not shown
notes: as for B1
Kd [1]: 980 nM

Continued, values first:

Relative FcgRIIaR-binding Activity [2]: 5.3
Relative FcgRIIb-binding Activity [3]: 585
Kd [4]: 200 nM
Kd [5]: 5.3 nM
Kd [6]: 3000 nM
Kd [7]: 55 nM
B2: IL6R-BP538/IL6R-L (antibody, human IgG1, kappa, name in EU numbering)
heavy: B1 heavy with D235E, G239D, V266I, H270E, P273G, A328K, K332R
light: not shown
notes: human IgG1

Relative FcgRIIaR-binding Activity [2]: 4.4
Relative FcgRIIb-binding Activity [3]: 481
Kd [4]: 250 nM
Kd [5]: 6.4 nM
Kd [6]: 2800 nM
Kd [7]: 32 nM
B4: IL6R-BP551/IL6R-L (antibody, human IgG1, kappa, name in EU numbering)
heavy: B1 heavy with D235E, G239D, V266I, H270E, P273G, E274D, Y298D, A328K, K332R
light: not shown
notes: human IgG1

Relative FcgRIIaR-binding Activity [2]: 3.3
Relative FcgRIIb-binding Activity [3]: 368
Kd [4]: 330 nM
Kd [5]: 8.4 nM
Kd [6]: 5600 nM
Kd [7]: 64 nM
B6: IL6R-BP539/IL6R-L (antibody, human IgG1, kappa, name in EU numbering)
heavy: B1 heavy with D235E, G239D, V266I, S269G, H270E, P273G, E274P, Y298D, A328K, K332R
light: not shown
notes: human IgG1

Relative FcgRIIaR-binding Activity [2]: 9.9
Relative FcgRIIb-binding Activity [3]: 837
Kd [4]: 110 nM
Kd [5]: 3.7 nM
Kd [6]: 1300 nM
Kd [7]: 2.1 nM
B7: IL6R-BP502/IL6R-L (antibody, human IgG1, kappa, name in EU numbering)
heavy: B1 heavy with G239D, V266I, S269A, H270E, P273G, Y298D, A328K, A329G, K332R
light: not shown
notes: human IgG1

Relative FcgRIIaR-binding Activity [2]: 2.4
Relative FcgRIIb-binding Activity [3]: 196
Kd [4]: 460 nM
Kd [5]: 16 nM
Kd [6]: 8300 nM
Kd [7]: 12 nM
B10: IL6R-BP563/IL6R-L (antibody, human IgG1, kappa, name in EU numbering)
heavy: B1 heavy with G239D, H270E, P273G, E274D, Y298D, A328K, K332R
light: not shown
notes: human IgG1

Relative FcgRIIaR-binding Activity [2]: 13.7
Relative FcgRIIb-binding Activity [3]: 1040
Kd [4]: 79 nM
Kd [5]: 3 nM
Kd [6]: 1300 nM
Kd [7]: 8.9 nM
B15: IL6R-BP536/IL6R-L (antibody, human IgG1, kappa, name in EU numbering)
heavy: B1 heavy with G239D, V266I, H270E, P273G, Y298D, A328K, A329G, K332R, P398M
light: not shown
notes: human IgG1

From US20220411483A1 (Chugai, published 2022)
